1 protein from FireProtDB (doi:10.1111/j.1399-3011.1991.tb01525.x) can be followed below.

For this data set the following is noted: Aspergillus oryzae (strain ATCC 42149 / RIB 40), Thermal, DSC, glycine 0.05 M, reversible: yes, whole UniProt chain shown.

B1: Guanyl-specific ribonuclease T1 wild type, P00651 (protein)
chain: MMYSKLLTLTTLLLPTALALPSLVERACDYTCGSNCYSSSDVSTAQAAGYQLHEDGETVGSNSYPHKYNNYEGFDFSVSSPYYEWPILSSGDVYSGGSPGADRVVFNENNQLAGVITHTGASGNNFVECT
Regarding B1, the Tm amounted to 39.2 °C (pH 2), 45.6 °C (pH 2.5), 50.5 °C (pH 3) and 63.3 °C (pH 4). For the same protein, the “unfolding enthalpy (calorimetric)” value came to 82 kcal/mol (pH 2), 89.4 kcal/mol (pH 2.5), 97.3 kcal/mol (pH 3) and 110 kcal/mol (pH 4). For the same protein, where the note is “pH 3, 40 °C”, the “heat capacity change of unfolding” value turned out to be 1.19 kcal/mol/K. For the same protein, where the note is “pH 3, 40 °C”, the unfolding free energy was 2.94 kcal/mol.
